Literature values in patent KR20200047176A, “투라노스의 제조방법” (주식회사 삼양사, priority 2018, dated 2020).

Conditions: 2 M sucrose substrate

B1: NpAS: amylosucrase from Neisseria polysaccharea, known prior enzyme (protein, UniProt Q9ZEU2 1-636, looked up)
Amylosucrase: MLTPTQQVGLILQYLKTRILDIYTPEQRAGIEKSEDWRQFSRRMDTHFPKLMNELDSVYGNNEALLPMLEMLLAQAWQSYSQRNSSLKDIDIARENNPDWILSNKQVGGVCYVDLFAGDLKGLKDKIPYFQELGLTYLHLMPLFKCPEGKSDGGYAVSSYRDVNPALGTIGDLREVIAALHEAGISAVVDFIFNHTSNEHEWAQRCAAGDPLFDNFYYIFPDRRMPDQYDRTLREIFPDQHPGGFSQLEDGRWVWTTFNSFQWDLNYSNPWVFRAMAGEMLFLANLGVDILRMDAVAFIWKQMGTSCENLPQAHALIRAFNAVMRIAAPAVFFKSEAIVHPDQVVQYIGQDECQIGYNPLQMALLWNTLATREVNLLHQALTYRHNLPEHTAWVNYVRSHDDIGWTFADEDAAYLGISGYDHRQFLNRFFVNRFDGSFARGVPFQYNPSTGDCRVSGTAAALVGLAQDDPHAVDRIKLLYSIALSTGGLPLIYLGDEVGTLNDDDWSQDSNKSDDSRWAHRPRYNEALYAQRNDPSTAAGQIYQGLRHMIAVRQSNPRFDGGRLVTFNTNNKHIIGYIRNNALLAFGNFSEYPQTVTAHTLQAMPFKAHDLIGGKTVSLNQDLTLQPYQVMWLEIA
turanose conversion: 50.9%
